Results: paper PMC4573519 (PLoS ONE, 2015)
Substitutions are numbered along the chain they refer to.

T1: Fetuin (bovine serum glycoprotein), biotinylated (bovine, UniProt P12763 19-359)
T1 construct: source: bought: Sigma-Aldrich
T1 sequence: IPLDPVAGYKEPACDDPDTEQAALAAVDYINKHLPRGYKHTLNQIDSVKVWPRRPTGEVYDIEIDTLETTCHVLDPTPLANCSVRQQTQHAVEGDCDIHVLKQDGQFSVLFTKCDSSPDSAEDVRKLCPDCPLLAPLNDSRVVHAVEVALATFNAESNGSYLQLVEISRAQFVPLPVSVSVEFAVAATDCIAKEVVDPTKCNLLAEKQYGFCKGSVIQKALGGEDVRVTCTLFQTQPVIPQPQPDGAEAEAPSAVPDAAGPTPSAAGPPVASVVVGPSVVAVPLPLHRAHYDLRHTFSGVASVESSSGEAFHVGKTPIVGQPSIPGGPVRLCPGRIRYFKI

T2: Asialofetuin (fetuin lacking sialic acid), biotinylated (bovine, UniProt P12763 19-359)
T2 construct: source: bought: Sigma-Aldrich
T2 sequence: T1 sequence

B1: S2(PtxB1)S4his recombinant dimer of pertussis toxin subunits S2 (PtxB1 form) and S4 (complex)
chain 1: STPGIVIPPQEQITQHGGPYGRCANKTRALTVAELRGSGDLQEYLRHVTRGWSIFALYDGTYLGGEYGGVIKDGTPGGAFDLKTTFCIMTTRNTGQPATDHYYSNVTATRLLSSTNSRLCAVFVRSGQPVIGACTSPYDGKYWSMYSRLRKMLYLIYVAGISVRVHVSKEEQYYDYEDATFETYALTGISICNPGSSLC
chain 2: DVPYVLVKTNMVVTSVAMKPYEVTPTRMLVCGIAAKLGAAASSPDAHVPFCFGKDLKRPGSSPMEVMLRAVFMQQRPLRMFLGPKQLTFEGKPALELIRMVECSGKQDCP
B2: S3S4his recombinant dimer of pertussis toxin subunits S3 and S4 (complex)
chain 1: VAPGIVIPPKALFTQQGGAYGRCPNGTRALTVAELRGNAELQTYLRQITPGWSIYGLYDGTYLGQAYGGIIKDAPPGAGFIYRETFCITTIYKTGQPAADHYYSKVTATRLLASTNSRLCAVFVRDGQSVIGACASPYEGRYRDMYDALRRLLYMIYMSGLAVRVHVSKEEQYYDYEDATFQTYALTGISLCNPAASIC
chain 2: B1 chain 2
B3: S2(PtxB2)S4his recombinant dimer of pertussis toxin subunits S2 (PtxB2 form) and S4 (complex)
chain 1: B1 chain 1 with G18S
chain 2: B1 chain 2

Tests used:
[1] = molecular target: T1, Fetuin (bovine serum glycoprotein), …; assay: BLI; conditions: both partners purified
[2] = molecular target: T2, Asialofetuin (fetuin lacking sialic …); assay: BLI; conditions: both partners purified

Binder	binding result [1]	binding result [2]
B1	binds	binds
B2	binds	binds
B3	binds	binds
